First the molecules themselves.
B5: Flag-TFIIEα (natural protein, UniProt P29083 1-439, looked up)
chain: MADPDVLTEVPAALKRLAKYVIRGFYGIEHALALDILIRNSCVKEEDMLELLKFDRKQLRSVLNNLKGDKFIKCRMRVETAADGKTTRHNYYFINYRTLVNVVKYKLDHMRRRIETDERDSTNRASFKCPVCSSTFTDLEANQLFDPMTGTFRCTFCHTEVEEDESAMPKKDARTLLARFNEQIEPIYALLRETEDVNLAYEILEPEPTEIPALKQSKDHAATTAGAASLAGGHHREAWATKGPSYEDLYTQNVVINMDDQEDLHRASLEGKSAKERPIWLRESTVQGAYGSEDMKEGGIDMDAFQEREEGHAGPDDNEEVMRALLIHEKKTSSAMAGSVGAAAPVTAANGSDSESETSESDDDSPPRPAAVAVHKREEDEEEDDEFEEVADDPIVMVAGRPFSYSEVSQRPELVAQMTPEEKEAYIAMGQRMFEDLFE
notes: TFIIEα, the α subunit of the general transcription factor TFIIE; The methods name an anti-Flag-Tag antibody among those used for the co-immunoprecipitations; also called rIIEα/WT; the α subunit of rIIEαβ; source: E. coli, purified; alone or co-produced with rIIEβ

Holding throughout (settings): both partners purified
Assay [1] has as its target T1, recombinant TFIIH (rIIH/WT) (UniProt P18074 1-760; P19447 1-782; P32780 1-548; Q92759 1-462; Q13888 1-395; Q13889 …).
T1 construct: XPD subunit of TFIIH; XPB subunit of TFIIH; p62 subunit of TFIIH; p52 subunit of TFIIH; p44 subunit of TFIIH; p34 subunit of TFIIH; p8 (TTDA, TTD-A) subunit of TFIIH; cdk7 (CDK7 kinase), CAK subunit of TFIIH; cyclin H, CAK subunit of TFIIH; MAT1, CAK subunit of TFIIH; also called rIIH-XPD/WT; TFIIH/WT; copies: + + + + + + + + +
The assay can be described thus: co-IP; rIIH/WT immunoprecipitated with anti-p62 (protein G magnetic beads) and incubated with rIIEαβ (α and β added together as the co-produced rIIE), washes at 150 and 500 mM KCl; blots with anti-XPB, anti-IIEα, anti-IIEβ (Fig. 3b).

The assay “Flag-TFIIEα” addresses B5. The experiment in a line: co-IP; rIIEα/WT co-produced with rIIEβ/WT, /A150P or /D187Y, immunoprecipitated at 150 and 500 mM KCl; blots for IIEα and IIEβ (Fig. 3e).
The next assay has as its target T2, Flag-XPD/WT (UniProt P18074 1-760).
T2 construct: XPD subunit of TFIIH; also called the XPD subunit of rIIH/WT; source: Sf21 insect cells infected with baculoviruses for all TFIIH subunits
The assay can be described thus: co-IP; purified rIIH with XPD/WT, /R112H or /R722W immunoprecipitated with anti-XPD and incubated at 150 and 500 mM KCl; blots for XPB, XPD, CDK7 (Fig. 3f).

B1: His-TFIIEβ/WT (natural protein, UniProt P29084 1-291, looked up)
chain: MDPSLLRERELFKKRALSTPVVEKRSASSESSSSSSKKKKTKVEHGGSSGSKQNSDHSNGSFNLKALSGSSGYKFGVLAKIVNYMKTRHQRGDTHPLTLDEILDETQHLDIGLKQKQWLMTEALVNNPKIEVIDGKYAFKPKYNVRDKKALLRLLDQHDQRGLGGILLEDIEEALPNSQKAVKALGDQILFVNRPDKKKILFFNDKSCQFSVDEEFQKLWRSVTVDSMDEEKIEEYLKRQGISSMQESGPKKVAPIQRRKKPASQKKRRFKTHNEHLAGVLKDYSDITSSK
notes: TFIIEβ, the β subunit of the general transcription factor TFIIE, encoded by GTF2E2; also called rIIEβ/WT; the β subunit of rIIEαβ/WT; source: E. coli, purified; alone or co-produced with rIIEα/WT
In the case of B1, the binding result (in assay [1]; in the assay with Flag-TFIIEα) was “binds” each time.

B2: His-TFIIEβ/D187Y (natural protein, UniProt P29084 1-291, looked up)
chain: MDPSLLRERELFKKRALSTPVVEKRSASSESSSSSSKKKKTKVEHGGSSGSKQNSDHSNGSFNLKALSGSSGYKFGVLAKIVNYMKTRHQRGDTHPLTLDEILDETQHLDIGLKQKQWLMTEALVNNPKIEVIDGKYAFKPKYNVRDKKALLRLLDQHDQRGLGGILLEDIEEALPNSQKAVKALGYQILFVNRPDKKKILFFNDKSCQFSVDEEFQKLWRSVTVDSMDEEKIEEYLKRQGISSMQESGPKKVAPIQRRKKPASQKKRRFKTHNEHLAGVLKDYSDITSSK
notes: TFIIEβ with the trichothiodystrophy patient mutation D187Y; The mutation is found in TTD patients; also called rIIEβ/D187Y; the β subunit of rIIEαβ/D187Y; source: E. coli, co-produced with rIIEα/WT, purified
B2: the binding result (in assay [1]; with Flag-TFIIEα) was “binds” each time.

B3: His-TFIIEβ/A150P (natural protein, UniProt P29084 1-291, looked up)
chain: MDPSLLRERELFKKRALSTPVVEKRSASSESSSSSSKKKKTKVEHGGSSGSKQNSDHSNGSFNLKALSGSSGYKFGVLAKIVNYMKTRHQRGDTHPLTLDEILDETQHLDIGLKQKQWLMTEALVNNPKIEVIDGKYAFKPKYNVRDKKPLLRLLDQHDQRGLGGILLEDIEEALPNSQKAVKALGDQILFVNRPDKKKILFFNDKSCQFSVDEEFQKLWRSVTVDSMDEEKIEEYLKRQGISSMQESGPKKVAPIQRRKKPASQKKRRFKTHNEHLAGVLKDYSDITSSK
notes: TFIIEβ with the trichothiodystrophy patient mutation c.448G>C [p.Ala150Pro]; The mutation is found in TTD patients; also called rIIEβ/A150P; the β subunit of rIIEαβ/A150P; source: E. coli, co-produced with rIIEα/WT, purified
In the case of B3, the binding result (in assay [1]; in the assay with Flag-TFIIEα) was “binds” in each case.

B4: CDK7 (natural protein, UniProt P50613 1-346, looked up)
chain: MALDVKSRAKRYEKLDFLGEGQFATVYKARDKNTNQIVAIKKIKLGHRSEAKDGINRTALREIKLLQELSHPNIIGLLDAFGHKSNISLVFDFMETDLEVIIKDNSLVLTPSHIKAYMLMTLQGLEYLHQHWILHRDLKPNNLLLDENGVLKLADFGLAKSFGSPNRAYTHQVVTRWYRAPELLFGARMYGVGVDMWAVGCILAELLLRVPFLPGDSDLDQLTRIFETLGTPTEEQWPDMCSLPDYVTFKSFPGIPLHHIFSAAGDDLLDLIQGLFLFNPCARITATQALKMKYFSNRPGPTPGCQLPRPNCPVETLKEQSNPALAIKRKRTEALEQGGLPKKLIF
notes: CDK7 kinase, CAK subunit of TFIIH; It stood in the assay together with the other TFIIH subunits; also called CDK7 kinase of the CAK; source: Sf21 insect cells infected with baculoviruses for all TFIIH subunits; in whole cell extract, and purified within rIIH through Flag-XPD
For B4, the binding result with Flag-XPD/WT was “binds”.
Regarding B5, the binding result in assay [1] was “binds”.

For the origin of these results see PMC6504876, “TFIIE orchestrates the recruitment of the TFIIH kinase module at promoter before release during transcription” (Nature Communications, 2019).
